According to PMC2930062 (Journal of cellular biochemistry, 2010):

Molecular target: T1, RANBP17^1-252, GAL4 DNA binding domain fusion (pM) (human (cDNA library of DU145 cells), UniProt Q9H2T7 1-252)
T1 sequence (looked up): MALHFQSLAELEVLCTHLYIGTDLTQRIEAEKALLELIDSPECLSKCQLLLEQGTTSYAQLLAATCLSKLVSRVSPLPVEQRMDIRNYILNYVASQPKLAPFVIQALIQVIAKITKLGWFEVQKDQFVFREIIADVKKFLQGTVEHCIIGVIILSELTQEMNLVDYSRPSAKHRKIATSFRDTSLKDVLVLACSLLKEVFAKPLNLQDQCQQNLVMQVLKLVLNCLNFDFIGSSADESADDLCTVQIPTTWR
Experiment: two-hybrid

fold increase in luciferase activity against empty vector transfectants: 5.7 fold
B1: E12^508-654, VP16 activation domain fusion (pVP16) (domain or fragment, human, UniProt P15923 508-654, looked up)
chain: TSAADHSEEEKKELKAPRARTSPDEDEDDLLPPEQKAEREKERRVANNARERLRVRDINEAFKELGRMCQLHLNSEKPQTKLLILHQAVSVILNLEQQVRERNLNPKAACLKRREEEKVSGVVGDPQMVLSAPHPGLSEAHNPAGHM
